The text below walks through data of paper PMC6177440, “Overlapping motifs on the herpes viral proteins ICP27 and ORF57 mediate interactions with the mRNA export adaptors ALYREF and UIF” (Scientific Reports, 2018).

First the molecules themselves.
B1: REF2-I (murine variant of ALYREF) residues 1-155 (domain or fragment)
chain: not shown
notes: Used 15N labelled or unlabelled; source: purified

Common to all, as to settings: both partners purified
The target of experiment [1] is T1, KSHV ORF57 residues 153-455 (KSHV, UniProt Q2HR75 153-455).
T1 construct: ORF57 of Kaposi sarcoma herpes virus (KSHV), residues 153-455, in pET-21a; The strep-II-tag and HRV-3C site lay between thioredoxin and ORF57; also called ksORF57Δ153; ORF57Δ153; source: T7 express E. coli, purified (strep-tag resin, HRV-3C cleavage, size exclusion chromatography); not shown: thioredoxin, N-terminal, cleaved; strep-II, N-terminal, cleaved
T1 sequence: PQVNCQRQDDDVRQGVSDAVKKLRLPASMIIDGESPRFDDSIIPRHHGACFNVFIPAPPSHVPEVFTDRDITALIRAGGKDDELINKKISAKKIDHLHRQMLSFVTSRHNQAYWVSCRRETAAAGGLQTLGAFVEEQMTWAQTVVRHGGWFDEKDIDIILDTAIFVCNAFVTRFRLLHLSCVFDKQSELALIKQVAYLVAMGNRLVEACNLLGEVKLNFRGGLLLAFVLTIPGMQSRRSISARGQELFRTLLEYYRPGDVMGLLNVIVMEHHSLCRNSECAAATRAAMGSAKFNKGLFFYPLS
The experiment in a line: NMR titration; 15N HSQC of the 15N labelled REF2-I construct (target) without and with unlabelled ICP27Δ241 or ksORF57Δ153 (binder); ca. 50 µM; NMR buffer with EDTA decreased to 0.1 mM, pH 6.2; 298 K.

The target of experiment [2] is T2, UIF N-terminal region (residues 1-190), recombinant (human, UniProt Q96QD9 1-190).
T2 construct: UIF, homo sapiens, Uniprot Q96QD9, residues 1-190, in pET-15b; source: T7 express E. coli, purified (TALON resin, size exclusion chromatography)
T2 sequence (looked up): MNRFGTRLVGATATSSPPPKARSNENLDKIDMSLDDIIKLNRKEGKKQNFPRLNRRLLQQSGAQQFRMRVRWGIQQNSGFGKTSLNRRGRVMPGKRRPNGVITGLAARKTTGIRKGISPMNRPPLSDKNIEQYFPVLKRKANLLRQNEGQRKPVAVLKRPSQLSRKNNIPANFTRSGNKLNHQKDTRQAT
The experiment can be described thus: NMR titration; 15N HSQC of the 15N labelled protein (target) without and with an equimolar amount of the unlabelled partner (binder); ca. 50 µM; 20 mM sodium phosphate, 50 mM NaCl, 50 mM L-Arg, 50 mM L-Glu, 1 mM EDTA, 2 mM TCEP, pH 6.2; 298 K.

The target in experiment [3] is B1. The experiment is described as above.

For the molecule B1, the binding result in experiment [1] was “binds”.

B2: KSHV ORF57 residues 68-178 (domain or fragment)
chain: GRIPKKSQGRSQLRSEIQFCSPLSRPRSPSPVNRYGKKIKFGTAGQNTRPPPEKRPRRRPRDRLQYGRTTRGGQCRAAPKRATRRPQVNCQRQDDDVRQGVSDAVKKLRLP
notes: ORF57 of Kaposi sarcoma herpes virus (KSHV), residues 68-178, in pET-15b; Used 15N labelled or unlabelled; also called ksORF57^68–178
In the case of B2, the binding result in experiment [2] and in experiment [3] was “binds” each time.

B3: HSV-1 ICP27 residues 103-155 (domain or fragment)
chain: SVWSRLGARRPSCSPEQHGGKVARLQPPPTKAQPARGGRRGRRRGRGRGGPGA
notes: ICP27 of HSV-1, residues 103-155; Used 15N labelled; also called ICP27^103–155; source: purified
Turning to B3, the binding result in experiment [2] and in experiment [3] was “binds” throughout.
